# B1: human methyltransferase-like protein 16 (METTL16), residues 1-562 (enzyme)
# chain: SNAMALSKSMHARNRYKDKPPDFAYLASKYPDFKQHVQINLNGRVSLNFKDPEAVRALTCTLLREDFGLSIDIPLERLIPTVPLRLNYIHWVEDLIGHQDSDKSTLRRGIDIGTGASCIYPLLGATLNGWYFLATEVDDMCFNYAKKNVEQNNLSDLIKVVKVPQKTLLMDALKEESEIIYDFCMCNPPFFANQLEAKGVNSRNPRRPPPSSVNTGGITEIMAEGGELEFVKRIIHDSLQLKKRLRWYSCMLGKKCSLAPLKEELRIQGVPKVTYTEFCQGRTMRWALAWSFYDDVTVPSPPSKRRKLEKPRKPITFVVLASVMKELSLKASPLRSETAEGIVVVTTWIEKILTDLKVQHKRVPCGKEEVSLFLTAIENSWIHLRRKKRERVRQLREVPRAPEDVIQALEEKKPTPKESGNSQELARGPQERTPCGPALREGEAAAVEGPCPSQESLSQEENPEPTEDERSEEKGGVEVLESCQGSSNGAQDQEASEQFGSPVAERGKRLPGVAGQYLFKCLINVKKEVDDALVEMHWVEGQNRDLMNQLCTYIRNQIFRLVAVN
# notes: Ser-Asn-Ala linker encoded in the pMCSG68 vector, between the TEV protease cleavage site and residue 1; METTL16, human, UniProt Q86W50, residues 1-562; also called full-length METTL16; source: E. coli BL21 Gold, purified (HisTrap HP, TEV cleavage, SEC); not shown: His6, N-terminal, cleaved
# Target: the molecule itself
# Experiment: SEC; analytical SEC on Superdex 200 10/300 GL; samples ~21 µM in 100 µl; 25 mM HEPES pH 7.5, 100 mM KCl, 50 mM NaCl, 1 mM TCEP, 1 mM MgCl2; molecular weights from a standard curve
protein,measurement,value
B1,stoichiometry N,2

# — article PMC5871880, “Structural insights into the RNA methyltransferase domain of METTL16” (Scientific Reports, 2018)
